# Measured values from the Immune Epitope Database (IEDB).
# Tests used:
# Assay in all cases: IEDB peptide-MHC binding, purified MHC/competitive/radioactivity; ≥ and ≤ were set here for values at or beyond the usual limits of such assays
# Conditions in all cases: source organism: Bordetella pertussis
# HLA-B*57:01 = target: HLA-B*57:01
# HLA-B*07:02 = target: HLA-B*07:02
# HLA-B*44:03 = target: HLA-B*44:03
# HLA-B*53:01 = target: HLA-B*53:01
# HLA-B*35:01 = target: HLA-B*35:01
# HLA-A*02:01 = target: HLA-A*02:01
sequence,measurement,setting,value
RGWSIFALY,IC50,HLA-B*57:01,1.05 µM
GAPAAVSVL,IC50,HLA-B*07:02,69.6 µM
FELGADHAV,IC50,HLA-B*44:03,≥ 78.2 µM
DASGQHRLW,IC50,HLA-B*57:01,≥ 70.4 µM
same,IC50,HLA-B*53:01,25.6 µM
VEVSSPPPV,IC50,HLA-B*44:03,28.8 µM
HVRGMLVPV,IC50,HLA-B*07:02,6.16 µM
LPTHLYKNF,IC50,HLA-B*35:01,10.5 µM
HAEHEKDVR,IC50,HLA-B*35:01,69.9 µM
AESSEAMAA,IC50,HLA-B*44:03,7.54 µM
TLNASNLTL,IC50,HLA-A*02:01,4.46 µM
YPALRAALI,IC50,HLA-B*53:01,9.5 µM
KPLADIAVI,IC50,HLA-B*53:01,15.7 µM
PAPTAPPMP,IC50,HLA-B*53:01,53.4 µM
VSVKVAKKL,IC50,HLA-B*57:01,37.4 µM
VIDGQKVLA,IC50,HLA-A*02:01,35.2 µM
AEATQLVTA,IC50,HLA-B*44:03,2.18 µM
KGPKLAMPW,IC50,HLA-B*57:01,4.87 µM
AAESTFESY,IC50,HLA-B*35:01,44.6 µM
KAAKSVNLM,IC50,HLA-B*35:01,50.6 µM
IETGGARRF,IC50,HLA-B*44:03,22.1 µM
